For two substances, stoichiometry N results are on record in paper PMC2900198.

As a reminder, the stoichiometry N is a count of units in the complex or per binding partner.

Assay [1] addresses Grass carp reovirus (GCRV) coat protein VP5 (grass carp reovirus (GCRV)). Kind of assay: cryo-EM structure.
Assay [2] deals with Grass carp reovirus (GCRV) turret protein VP1 (grass carp reovirus (GCRV)). Kind of assay: cryo-EM structure.

With “Grass carp reovirus (GCRV) coat protein VP5 (natural protein)”, the stoichiometry N in assay [1] was 3.
“Grass carp reovirus (GCRV) turret protein VP1 (natural protein)” showed a stoichiometry N in assay [2] of 5.
